The results in this text go back to the DeepSol protein solubility set.

A short description of this data set: soluble on expression in E. coli; label from the status in PepcDB or PDB records.
In the case of “MQEKTMKQMQQEVDDYISQFKEGYFSPLAMLARLTEELGELAREVNHYYGEKSKKATEQEKTVEEELGDLLFVLICFANSLGIDLQAAHDRVMDKFRTRDRDRWTRKEEGS”, the “soluble on expression in E. coli” value is on record as “not soluble”.

“MGSDKIHHHHHHMFIGREKELATLNGLYNSDKFEFAVIYGRRRVGKTALISHFIQDKKAIYFMGVESNEKQNLENFSQAIMEYASGIMPGTSFVSFQAAIEYVFKLCENERLVLVIDEYPYVAKASKSMASTLQMLIDKNKDNSKMMLILCGSSMSYMEDNVLAYKAPLYGRRTAQMKILPFDFEDSCKYFNGFSAEDMALIYGIVGGTPQYLLQMNDSMSVEDNIKNVFLNPASAIFEEPENLLKQEVREPAVYNAIITAVATGSSRMSEIATKIGETTSVCSQYMKNLINLGLIRKETPYGEKESRKSIYAIADNMFRFWYRFIPDNNSIISRGATELAYKRIAPNLSDYMGRIFEEICMQYMWKLLLDGESPVEFSNLGRWWGTDPQERIQTEIDIMGDQDKSTVLFGECKWINENVDVKVLEKLKKRSRLFRYENVHLFLFAKKGFTQGCIEEAGKMGNVSLVTYDQIYRYLNNIDLSQ”: the “soluble on expression in E. coli” value is recorded as “not soluble”.

With “MAGDPMNIQDAQPSTLREMIKQGKLTGHTSGMAKGYVQANVVILPSKCAYDFLLFCFRNPKTCPLLDVSEKGNKSFTKYGVTADISTEVAAYRIYQYGELIETRANVDDLYTDDMVSFLIGCSFTFEHALLEAGIPIRHLEENHNVPMYVTNIPANPSGQFKGNITVSMRPMTMTQAIKATEITTRFKNVHGTPIHIGNPTEIGITDLALPDFGEPVTINENEVPVFWGCGVTPQSVALDAKPDLMITHAPGHMFITDIPDSQLSDLEHHHHHH”, the “soluble on expression in E. coli” value was “soluble”.

For the sequence “EMTDLQSTHKNFLFEIEEVGIKNLTYPVLIDQYQTAGLFSFSTSLNKNEKGINMSRILESVEKHYDNGIELEFNTLHQLLRTLQDKMNQNAAGVDVSGKWFFDRYSPVTNIKAVGHADVTYGLAIENHTVTRKELTIQAKVTTLCPCSKEISEYSAHNQRGIVTVKAYLDKNNDVIDDYKDKILDAMEANASSILYPILKRPDEKRVTERAYENPRFVEDLIRLIAADLVEFDWIEGFDIECRNEESIHQHDAFARLKYRK”, the “soluble on expression in E. coli” value is given as “not soluble”.

For the sequence “MRPQQLHATEITSSGFRLAWPPLLTADSGYYVLELVPSAQPGAARRQQLPGNATDWIWAGLDPDTDYDVALVPESNVRLLRPQILRVRTRPGEAGPGASGPESGAGPAPTQLAALPAPEEAGPERIVISHARPRSLRVSWAPALGSAAALGYHVQFGPLRGGEAQRVEVPAGRNCTTLQGLAPGTAYLVTVTAAFRSGRESALSAKACTPDGPRPRPRPVPRAPTPGTASREP”, the “soluble on expression in E. coli” value is recorded as “soluble”.

“MKLGVIAAMDLELQKLLEYFPPQRKIQLAKNTFYIYEQKTSQVIMVCAGQGKTNATLYSQILIDSFQIEQLINIGICGCLNEKLQLFEMVLGEEYCHYDIRERQSINKFPYQLYYKGDKGMLAELQHLDEKIKCVRFGTGEGFVCDTTEKRNLIEQFSIDCVDMESAAIAQCCFLNDCAFVSIRIICDRADANAVKVTEDTQTQAMEKVFELVCAYIN”: the “soluble on expression in E. coli” value is given as “not soluble”.

On to “MSFDADEEILQDFLVEAGEILEQLSEQLVELESRPDDMDLLNAIFRGFHTVKGGAGFLQLNALVECCHIAENVFDILRKGERRVSSELMDVVLQALDTVNAMFDQVREQSEPTPATPELLAALARLAEPEGAEPAEPVQAPPAAVPPAEPAAPPEAPAQSASSDITDDEFEQLLDALQGDEAPASAVAEAPAAPAGDEISDAEFEALLDQLHGKGKFVPPAVSAEPAQVPAEAVEPAAAAAGDDISDDEFEALLDELHGKGKFGDVPEAAGTPAAPAAAAPAAAPAEQGKAPAAAGGDEISDDEFESLLDELHGKGKFNGASEAVAAAAAVAKNIAAKSPAAKPVAPAKAAAARPAAPDRPAASEAETTVRVDTARLDEIMNMVGELVLVRNRLVRLGLNSGDEAMAKAVANLDVVTGDLQMSVMKTRMQPIKKVFGRFPRLVRDLARNMKKEINLELVGEETDLDKNLVEALADPLVHLVRNAVDHGIESPEEREAAGKPRVGQVVLSAEQEGDHILLMITDDGKGMDAEVLRNKAVEKGLLERDAADRLTDLECYNLIFAPGFSTKTEISDVSGRGVGMDVVKTKISQLNGTVNVFSQKGSGSKIVIKVPLTLAIMPTLMVMLGSQAFAFPLVNVNEIFHLDLSRTNVVDGQEVVIVRDKALPLFYLKRWLVPSAAHEEQGEGHVVILSVGTQRIGFVVDQLVGQEEVVIKPLGKMLQGTPGMAGATITGDGRIALILDVPSMLKRYARRI”, for which the “soluble on expression in E. coli” value is “not soluble”.

Regarding “MKIKVISRNPNTYQRETTDKRNKIVRNFNTPADPFRSQVEYTRALNATKLERVFAKPFVASLDGHVDGVQVLAKHPNRPSTVFSGARDGQVKIWNLASRECQATLDAHRGLVNDISIDNNNGENFVTVGQDNQLKYWKIEGQQKTPAHSIAMDGIVYGVSHLSFSSDFVTCGEDISVWKPYRETPLRSYNLGTDTIHTCRANPVEENVIVGARSDRSIYVLDTRQDVPLKKVTMKMRPNKISWNPMEAYNFTVASEDYSLYTFDMRYMEHPVQSHQGFTSAVLDVDYSPTGQEFVAAGYDRSIRLFKARDMTSRDVYYTKRMASVLSVLWSADSKFVLSGSNEMNIRVWKANAAEKLGPLTKREKQAFAYNEKLRDTYKNHPEVRRIAKHRNVPRHIFTAAKEHKLIRDARGRRDFRRAKAAGLDEEESYLPQTQKIMVGDAEM”, the “soluble on expression in E. coli” value is given as “not soluble”.

Regarding “AKVNIKPLEDKILVQANEAETTTASGLVIPDTAKEKPQEGTVVAVGPGRWDEDGEKRIPLDVAEGDTVIYSKYGGTEIKYNGEEYLILSARDVLAVVSK”, the “soluble on expression in E. coli” value is reported as “soluble”.

For “MPAILSRVAPRTFNLVGSRLMASAARLETVPREEIHKEYDRKKTFYHRDLEIQLAGPTQLKTKPLDPTKLKFGHTYADYMMTCDWDAERGWHHPKIEPIGELKIHPGAKVLHYASELFEGMKAYRGIDNKIRMFRPEMNMARMKRTALRAALPDFDSEEMINVLTELLRLDQEWVPNSDVCSLYLRPTLIGTDPTLGVGCATEAKMFVITGPVGAYYSTGFQPVSLLADSRFIRAFPGGVGAYKMGCNYAPTIWVGKEAASKNCQQVLWLYGENEDLTEVGTMNIFLFWKNEEGDMELITPPLHRGLILPGVTRDSLLELGREWGEYKVTERTLNMEEVKKALSEKRLYEMFGSGTACVVSPVGKILYHNKVTDEYEELHIPTMSSKFGVMQKFYNTINDIQYGRIIKDGWMRDI”, the “soluble on expression in E. coli” value was “not soluble”.

On to “MGSDKIHHHHHHMSLNKNLNDIEKSQLIELMHESLRIRSHFELFLWMQGKLQVFLPHEIMITAWGDFSLGVIYFNIVSPLPGIRSDKIASHEINQFLQNLFNYWLNHAKAPFTLAAADNILHDCEFSNKESSYYLKNMKSALVHAIKDHRGRHDCLYVLLSSNLSFPPASRPMLEALLPYIDSALRQIEHLPEQQPTLIKAEPEPKDESLNILSGRELEIMDWVTKGKTNQEIGMILDISAFTVKNHLQRIFKKLNVMNRAQAVAKFRK”, for which the “soluble on expression in E. coli” value is “not soluble”.

For “MGSDKIHHHHHHMLEVKKLTVCYNDFLALNEISLKIQEGALTGIFGPNGAGKSTLLKAMLNIIPHQGEVSINNEDINKKLVKIAYVEQKADIDFTFPIKVKECVSMGTYAGMKVFQRIKNAEWQKVSKALEKVDMGKYSNHQIGELSGGQFQRVLLARCLAQNADFIFLDEPFVGIDLVSERIIMDTLKELKHQGKTVLIVHHDLSKVKKYFDNIILLNRNLIAHGSVESVFNEENLKKAYGDTIFIGEGE”, the “soluble on expression in E. coli” value is listed as “not soluble”.

Regarding “MNIVITGGTGLIGRHLIPRLLELGHQITVVTRNPQKASSVLGPRVTLWQGLADQSNLNGVDAVINLAGEPIADKRWTHKQKERLCQSRWNITQKLVDLINASDTPPSVLISGSATGYYGDLGEVVVTEEEPPHNEFTHKLCARWEEIACRAQSDKTRVCLLRTGVVLAPDGGILGKMLPPFRLGLGGPIGSGRQYLAWIHIDDMVNGILWLLDNELRGPFNMVSPYPVRNEQFAHALGHALHRPAILRVPTTAIRLLMGESSVLVLGGQRALPKRLEEAGFAFRWYDLEEALADVVR”, the “soluble on expression in E. coli” value is reported as “not soluble”.

For “MLAERGANITGLDISGPMLQQGREKAQATGVDDRVEFMRGDAARLPFPDDHFDTVFAMRFFHLADTPAAFLAEMRRVSKEQVFFDTFNRFSTRSIYNWALPMGSRLYSRWEIDRLLDGAGLELTDANHDWLLPYGFYRKIPNELAASFRSLDTALGGTPLGEKLASVSYWNTHVLEHHHHHH”, the “soluble on expression in E. coli” value was “not soluble”.

As for “MGSDKIHHHHHHMNGFSQLEGLRGHPSVVRVIGHRGARGVMPENTLEGFAFTLAAGVRALEFDVVMTADGVPVVTHNHHLANAMTRDGQGHWLTGAERQVAEMTYAEIRALDVGGLDGRTVYGRRFPDQAFLTGIHVPRLGELLDLCAGYGDQAPYLLLELKSDPALMHDHAARAEMVAAVLADVRRYRMEPRTVMHSFDWALLGECRRQAPDLPTSYLSQLPENADDPGEDSAKPVGPDYDRMTESLPQAVASAGGQLWCPYFLDVTPELVAEAHDLGLIVLTWTVNEPEDIRRMATTGVDGIVTDYPGRTQRILIDMGLSWT”, the “soluble on expression in E. coli” value was “not soluble”.

As for “MSKVNEITRESWILSTFPEWGTWLNEEIEQTVVEPNTFSMWWLGCTGIWLKSAGNTNLSIDFWCGTGKKTQKNRLMNTQHQMMRMGGVEALQPNLRTSIFPLDPFAIKEIDAVLASHDHADHIDVNVAAAVLQNCGEHVKFIGPQACVDLWLGWGVPQERCIVAKVGDVLEIGDVKIRVLDSFDRTALVTLPKGVSSYDKAILDGMDERAVNYLIETSGGSVYHSGDSHYSNYYAKHGNDYQIDVALLSYGENPRGVTDKMTSSDVLRAAESLDCQVVVPFHHDIWANFQNDPREIEVLWNMKKDRLQYQFAPFFWQVGGKYTYPTDKGRMHYQHFRGFQDIFKNEPELPYKAFL”, the “soluble on expression in E. coli” value was “soluble”.

On to “MIDVRKYIDNAALKPHLSEKEIEEFVLKSEELGIYAVCVNPYHVKLASSIAKKVKVCCVIGFPLGLNKTSVKVKEAVEAVRDGAQELDIVWNLSAFKSEKYDFVVEELKEIFRETPSAVHKVIVETPYLNEEEIKKAVEICIEAGADFIKTSTGFAPRGTTLEEVRLIKSSAKGRIKVKASGGIRDLETAISMIEAGADRIGTSSGISIAEEFLKRHLILEHHHHHH”, for which the “soluble on expression in E. coli” value is “soluble”.

For the sequence “MSDADSQKQIKLTSSDDKTFTVSRKVISQSKTITDIIQNLGIEESGSTSEDTIPLQKVTSTILEKIITWCEHHADDEPKKVDENKKTVDISEWDAEFMKVDQGTLFEIILAANYLDIRGLLDVTTQNVANMMKGKTPSQIRTLFNIENDFSEEEREAMKKENAWCED”, the “soluble on expression in E. coli” value is “not soluble”.

In the case of “MNTYVAEIGEIVRSQRRDEEYIEDITERLSRVSKELLGQRTWIRWFPYLKSIASTLYYTSTVVLGNQTLGEEYVHLFESNGLERTVPSIPSRISFVLLHSAFPLISNYLIQKAESTLTHPSTESFLGIPIRKNQKARQSFLDVFFWLRTKLFPQLQRAHIALFYITGAYYSIARRFTGIRFLSASAHSDIPALKVYRFLGYITLIQLAVSIGISLYSFLEQEKFNNKLKKEKKENNGGSDRNLDENSLFHPTFQCSICLENKNPSALFCGHLFCWTCIQEHAVAATSSASTSSARCPQCRLEFQPRDPNNLRLLSTSTHPTIYFTGIQPTGIPHLGNFFGSIEPWTELQNSVDKNILMMLSVVDQHAISLGPLPANELRQNTHQMTASLIACGVDPNRTLLFRQSDVPQIAQISWILGSLQTTSKLARLPQYKEKKERFKKGDIPVGLLTYPLLQAADVLTFKATTVPVGEDQSQHLNLLGGLAYAFNKTYETEIFPIPKQLTRESHARIRSLREPEKKMSKSSGGPRSRIEITDSRSTIIEKCQKAQSDNAGKVTYDKENRLAVSNLLDLYSAVTKTQTSEIDFSNWTTLDLKMNLAEAVDKRLAPIRQKFEELQNTGEVDKVLTENGEKAREIAEKNLEEIRRTIGFL”, the “soluble on expression in E. coli” value is “not soluble”.
